# Assay results from IntAct's records for PubMed 20078863.
# What was measured:
# [1] = target: Thra, P63059-2
# [2] = target: Thra, P63059-1
# [3] = target: Thra, P63059-2; remark: listed apart in the source
# Chain of Thra, P63059-2 (P63059 other isoform, or with tags, fused parts or gaps): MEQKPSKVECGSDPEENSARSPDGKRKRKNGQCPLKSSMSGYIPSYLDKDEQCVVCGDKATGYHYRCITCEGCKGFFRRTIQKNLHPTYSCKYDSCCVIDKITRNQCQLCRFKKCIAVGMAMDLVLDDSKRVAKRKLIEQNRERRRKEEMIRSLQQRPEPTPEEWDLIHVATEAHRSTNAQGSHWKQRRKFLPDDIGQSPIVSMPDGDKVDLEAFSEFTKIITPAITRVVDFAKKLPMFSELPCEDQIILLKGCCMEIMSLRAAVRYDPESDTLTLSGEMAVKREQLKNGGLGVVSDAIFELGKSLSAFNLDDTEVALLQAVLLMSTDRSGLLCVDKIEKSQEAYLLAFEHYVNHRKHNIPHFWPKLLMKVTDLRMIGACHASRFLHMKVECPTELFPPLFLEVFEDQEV
# Chain of Transforming acidic coiled-coil-containing protein 1 (Homo sapiens), O75410-9 L580A;I581A (O75410 other isoform, or with tags, fused parts or gaps L580A;I581A): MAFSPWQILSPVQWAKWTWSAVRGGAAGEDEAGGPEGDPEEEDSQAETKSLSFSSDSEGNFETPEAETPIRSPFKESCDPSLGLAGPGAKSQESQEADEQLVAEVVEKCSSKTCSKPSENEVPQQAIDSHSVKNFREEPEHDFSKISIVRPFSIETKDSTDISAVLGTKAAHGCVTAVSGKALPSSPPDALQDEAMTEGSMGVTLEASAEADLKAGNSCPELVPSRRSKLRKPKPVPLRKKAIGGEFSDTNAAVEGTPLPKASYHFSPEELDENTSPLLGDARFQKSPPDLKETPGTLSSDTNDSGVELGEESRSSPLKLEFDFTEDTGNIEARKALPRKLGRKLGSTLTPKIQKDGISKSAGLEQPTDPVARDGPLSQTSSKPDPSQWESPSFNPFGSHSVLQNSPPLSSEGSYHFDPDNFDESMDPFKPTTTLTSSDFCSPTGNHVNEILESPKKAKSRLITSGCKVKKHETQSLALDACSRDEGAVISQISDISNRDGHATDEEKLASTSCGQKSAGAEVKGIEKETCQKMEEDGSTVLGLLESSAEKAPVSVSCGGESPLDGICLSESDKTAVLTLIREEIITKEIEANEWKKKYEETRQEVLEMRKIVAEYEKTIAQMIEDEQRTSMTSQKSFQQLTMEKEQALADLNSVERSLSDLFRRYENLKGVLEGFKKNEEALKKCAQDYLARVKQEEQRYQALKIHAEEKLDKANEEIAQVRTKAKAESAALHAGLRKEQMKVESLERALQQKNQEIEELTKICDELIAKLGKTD
# Chain of Transforming acidic coiled-coil-containing protein 1 (Homo sapiens), O75410-10 L170A;I171A (O75410 other isoform, or with tags, fused parts or gaps L170A;I171A): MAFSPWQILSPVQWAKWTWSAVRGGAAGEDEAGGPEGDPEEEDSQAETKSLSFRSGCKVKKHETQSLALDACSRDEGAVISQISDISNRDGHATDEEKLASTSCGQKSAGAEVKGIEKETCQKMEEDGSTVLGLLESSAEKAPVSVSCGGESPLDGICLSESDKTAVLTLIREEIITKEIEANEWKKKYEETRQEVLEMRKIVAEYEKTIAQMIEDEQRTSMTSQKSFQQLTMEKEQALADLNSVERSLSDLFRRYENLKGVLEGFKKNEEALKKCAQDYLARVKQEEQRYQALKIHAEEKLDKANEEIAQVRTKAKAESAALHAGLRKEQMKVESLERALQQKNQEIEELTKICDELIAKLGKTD
# Chain of Thra, P63059-1 (P63059 whole entry): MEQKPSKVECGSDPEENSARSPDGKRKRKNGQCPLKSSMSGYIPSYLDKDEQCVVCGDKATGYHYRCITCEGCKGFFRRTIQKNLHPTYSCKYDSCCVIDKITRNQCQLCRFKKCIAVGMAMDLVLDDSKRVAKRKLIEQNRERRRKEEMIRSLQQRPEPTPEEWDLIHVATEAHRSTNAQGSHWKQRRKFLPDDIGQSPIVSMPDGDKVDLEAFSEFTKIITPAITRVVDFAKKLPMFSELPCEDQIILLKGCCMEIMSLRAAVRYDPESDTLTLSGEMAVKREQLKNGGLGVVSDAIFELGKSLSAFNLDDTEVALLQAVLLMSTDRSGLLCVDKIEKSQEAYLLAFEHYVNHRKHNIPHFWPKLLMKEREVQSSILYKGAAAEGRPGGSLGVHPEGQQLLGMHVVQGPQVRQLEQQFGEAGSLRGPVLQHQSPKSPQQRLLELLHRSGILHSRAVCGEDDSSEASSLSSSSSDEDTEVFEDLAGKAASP
effect of a mutation on the interaction [1],effect of a mutation on the interaction [2],effect of a mutation on the interaction [3],Substance
decreasing interaction strength,disrupting interaction strength,,"Transforming acidic coiled-coil-containing protein 1 (Homo sapiens), O75410-9 L580A;I581A"
,,disrupting interaction strength,"Transforming acidic coiled-coil-containing protein 1 (Homo sapiens), O75410-10 L170A;I171A"
